According to publication PMC6346018 (Scientific Reports, 2019):

Assays:
[1] = target: T1, light-activated and phosphorylated rhodopsin in rod outer segment membranes (P-ROS*) (UniProt P02699 1-348, phosphorylated by endogenous GRK1: mixture of species with up to seven phosphate groups per molecule, sites not stated); test: pull-down; 1.5 µg purified arrestin-1-mCherry and 15 µg (rhod-)opsin in native ROS membranes, 50 µl, 100 mM Hepes pH 7.0, 100 mM NaCl, 1 mM DTT, 0.1 mM EDTA; P-ROS* and ROS* illuminated 2.5 min (495 nm long-pass), others kept dark; centrifuged at 4 °C, pellet washed, mCherry fluorescence; settings: one partner purified
T1 construct: rhodopsin, endogenous in native rod outer segment (ROS) disc membranes (isolated membranes, not whole cells); also called ROS-P*; source: rod outer segment disc membranes isolated from native source; phosphorylated by endogenously available GRK1; illuminated
T1 sequence (P02699 whole entry): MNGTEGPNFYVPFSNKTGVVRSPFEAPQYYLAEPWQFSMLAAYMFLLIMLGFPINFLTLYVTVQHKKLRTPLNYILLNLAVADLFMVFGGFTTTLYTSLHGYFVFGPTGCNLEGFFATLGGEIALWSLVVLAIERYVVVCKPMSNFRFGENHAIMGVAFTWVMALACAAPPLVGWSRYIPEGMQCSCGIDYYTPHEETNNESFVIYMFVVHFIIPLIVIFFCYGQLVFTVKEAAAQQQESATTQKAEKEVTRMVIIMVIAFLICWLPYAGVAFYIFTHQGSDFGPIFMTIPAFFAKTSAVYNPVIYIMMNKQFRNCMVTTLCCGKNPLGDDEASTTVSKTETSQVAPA

[2] = target: T1, light-activated and phosphorylated …; test: pull-down; cleared bacterial lysate with arrestin-mCherry mixed with ROS-P* membranes; 10 mM Hepes pH 7.0, 1 mM DTT, 1 mM MgCl2, 0.1 mM EDTA, NaCl from 100 mM to 3.949 M; 37 °C, 5 min incubation, light activated 6 min; membranes pelleted, washed, mCherry fluorescence of the pellet; IC50 of NaCl for complex formation; settings: partners not purified
[3] = target: T1, light-activated and phosphorylated …; test: as above; settings: partners not purified; remark: listed apart in the source

activity level relative to WT [1] [%]	IC50 of NaCl relative to WT [2] [%]	IC50 of NaCl for complex formation [3] [M]	Binder
106	–	–	arrestin-1-mCherry-Strep-tag double mutant T304A + F375A, HEK293-expressed and purified (natural protein, bovine, UniProt P08168 1-404, looked up, arrestin-1 (visual arrestin), bovine, UniProt P08168; also called T304A + F375A double mutant; source: HEK293, transiently transfected (pcDNA3.1), one-step purified (Strep-Tactin); not shown: mCherry, C-terminal, kept) MKANKPAPNHVIFKKISRDKSVTIYLGKRDYIDHVERVEPVDGVVLVDPELVKGKRVYVSLTCAFRYGQEDIDVMGLSFRRDLYFSQVQVFPPVGASGATTRLQESLIKKLGANTYPFLLTFPDYLPCSVMLQPAPQDVGKSCGVDFEIKAFATHSTDVEEDKIPKKSSVRLLIRKVQHAPRDMGPQPRAEASWQFFMSDKPLRLAVSLSKEIYYHGEPIPVTVAVTNSTEKTVKKIKVLVEQVTNVVLYSSDYYIKTVAAEEAQEKVPPNSSLTKTLTLVPLLANNRERRGIALDGKIKHEDANLASSTIIKEGIDKTVMGILVSYQIKVKLTVSGLLGELTSSEVATEVPFRLMHPQPEDPDTAKESFQDENAVFEEFARQNLKDAGEYKEEKTDQEAAMDE
–	502	1.51	arrestin-1-mCherry double mutant T304A + F375A, bacterial lysate (natural protein, bovine, UniProt P08168 1-404, looked up, arrestin-1 (visual arrestin), bovine, UniProt P08168; not shown: mCherry, C-terminal, kept) MKANKPAPNHVIFKKISRDKSVTIYLGKRDYIDHVERVEPVDGVVLVDPELVKGKRVYVSLTCAFRYGQEDIDVMGLSFRRDLYFSQVQVFPPVGASGATTRLQESLIKKLGANTYPFLLTFPDYLPCSVMLQPAPQDVGKSCGVDFEIKAFATHSTDVEEDKIPKKSSVRLLIRKVQHAPRDMGPQPRAEASWQFFMSDKPLRLAVSLSKEIYYHGEPIPVTVAVTNSTEKTVKKIKVLVEQVTNVVLYSSDYYIKTVAAEEAQEKVPPNSSLTKTLTLVPLLANNRERRGIALDGKIKHEDANLASSTIIKEGIDKTVMGILVSYQIKVKLTVSGLLGELTSSEVATEVPFRLMHPQPEDPDTAKESFQDENAVFEEFARQNLKDAGEYKEEKTDQEAAMDE
